Laboratory results: IntAct's records for PubMed 29774127

Experiments:
ehmt2_human EHMT2 = ehmt2_human EHMT2 (UniProt Q96KQ7)
setb1_human SETDB1 = setb1_human SETDB1 (UniProt Q15047)
ctnb1_human CTNNB1 = ctnb1_human CTNNB1 (UniProt P35222)

Measured: effect of a mutation on the interaction

Parafibromin (Homo sapiens) (from UniProt Q6P1J9) Y290F;Y293F;Y315F
increasing interaction: ehmt2_human EHMT2 | setb1_human SETDB1 | ctnb1_human CTNNB1 | SETDB1, Q15047-2
